Results reported in patent US20190010205A1.

Target: human prolactin receptor (hPRLR) expressed on mouse BaF3 cells (BaF3/hPRLR cells) (human) (UniProt P16471)
Test: cell-based or functional assay

human prolactin receptor (hPRLR) expressed on mouse BaF3 cells (BaF3/hPRLR cells) (human), sequence (P16471 25-622): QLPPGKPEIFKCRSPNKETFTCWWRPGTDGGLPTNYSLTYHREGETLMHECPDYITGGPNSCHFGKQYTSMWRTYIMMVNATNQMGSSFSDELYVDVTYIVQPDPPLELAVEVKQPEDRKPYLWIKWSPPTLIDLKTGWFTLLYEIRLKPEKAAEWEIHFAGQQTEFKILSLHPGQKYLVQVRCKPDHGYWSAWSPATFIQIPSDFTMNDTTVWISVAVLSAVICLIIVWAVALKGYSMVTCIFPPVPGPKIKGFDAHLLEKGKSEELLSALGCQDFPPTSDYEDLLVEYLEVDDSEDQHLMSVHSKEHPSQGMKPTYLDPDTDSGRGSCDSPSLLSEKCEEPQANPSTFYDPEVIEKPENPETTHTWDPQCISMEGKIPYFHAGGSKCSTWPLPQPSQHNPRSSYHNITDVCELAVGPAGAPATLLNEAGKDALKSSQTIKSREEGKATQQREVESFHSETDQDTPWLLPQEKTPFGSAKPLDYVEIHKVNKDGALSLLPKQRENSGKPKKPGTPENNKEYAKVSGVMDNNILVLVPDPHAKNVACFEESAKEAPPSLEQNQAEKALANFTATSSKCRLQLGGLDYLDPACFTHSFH

Q: How did the EC50, growth of BaF3/hPRLR cells (positive control) turn out when “human prolactin (hPRL, R&D System Inc.) (from UniProt P01236 29-227) (ligand)” was run?
A: 2.1 pM
